{"source": "paper PMC2116009", "about": "(The Journal of Cell Biology, 1990)", "binders": {"B1": {"name": "ovotransferrin (ligand)", "chain": "APPKSVIRWCTISSPEEKKCNNLRDLTQQERISLTCVQKATYLDCIKAIANNEADAISLDGGQAFEAGLAPYKLKPIAAEVYEHTEGSTTSYYAVAVVKKGTEFTVNDLQGKTSCHTGLGRSAGWNIPIGTLLHRGAIEWEGIESGSVEQAVAKFFSASCVPGATIEQKLCRQCKGDPKTKCARNAPYSGYSGAFHCLKDGKGDVAFVKHTTVNENAPDQKDEYELLCLDGSRQPVDNYKTCNWARVAAHAVVARDDNKVEDIWSFLSKAQSDFGVDTKSDFHLFGPPGKKDPVLKDLLFKDSAIMLKRVPSLMDSQLYLGFEYYSAIQSMRKDQLTPSPRENRIQWCAVGKDEKSKCDRWSVVSNGDVECTVVDETKDCIIKIMKGEADAVALDGGLVYTAGVCGLVPVMAERYDDESQCSKTDERPASYFAVAVARKDSNVNWNNLKGKKSCHTAVGRTAGWVIPMGLIHNRTGTCNFDEYFSEGCAPGSPPNSRLCQLCQGSGGIPPEKCVASSHEKYFGYTGALRCLVEKGDVAFIQHSTVEENTGGKNKADWAKNLQMDDFELLCTDGRRANVMDYRECNLAEVPTHAVVVRPEKANKIRDLLERQEKRFGVNGSEKSKFMMFESQNKDLLFKDLTKCLFKVREGTTYKEFLGDKFYTVISSLKTCNPSDILQMCSFLEGK"}}, "biological_target": "chicken transferrin receptor, endogenous on chicken embryo fibroblasts (chicken (endogenous in CEF), UniProt Q90997 1-776)", "sequence (Q90997 whole entry)": "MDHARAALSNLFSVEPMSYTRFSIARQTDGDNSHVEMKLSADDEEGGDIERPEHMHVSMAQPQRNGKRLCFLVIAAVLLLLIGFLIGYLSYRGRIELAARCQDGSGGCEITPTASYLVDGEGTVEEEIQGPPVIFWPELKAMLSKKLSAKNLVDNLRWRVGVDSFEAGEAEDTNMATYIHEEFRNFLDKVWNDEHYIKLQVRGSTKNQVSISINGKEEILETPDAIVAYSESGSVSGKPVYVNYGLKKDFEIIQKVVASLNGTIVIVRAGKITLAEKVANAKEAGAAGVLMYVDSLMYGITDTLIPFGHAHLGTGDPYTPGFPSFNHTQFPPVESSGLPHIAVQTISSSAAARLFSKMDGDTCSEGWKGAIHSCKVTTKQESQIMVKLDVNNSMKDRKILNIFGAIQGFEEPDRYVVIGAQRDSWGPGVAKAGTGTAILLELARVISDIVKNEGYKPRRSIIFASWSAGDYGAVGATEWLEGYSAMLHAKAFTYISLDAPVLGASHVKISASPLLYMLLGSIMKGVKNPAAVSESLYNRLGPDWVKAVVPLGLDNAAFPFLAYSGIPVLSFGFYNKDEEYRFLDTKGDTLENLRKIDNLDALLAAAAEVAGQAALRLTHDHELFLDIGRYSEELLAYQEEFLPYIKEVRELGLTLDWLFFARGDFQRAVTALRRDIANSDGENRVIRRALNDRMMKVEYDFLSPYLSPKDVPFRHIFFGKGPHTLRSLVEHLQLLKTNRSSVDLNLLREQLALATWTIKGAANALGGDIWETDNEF", "test": "radioligand binding"}
{"binder": "B1", "values": [{"measurement": "Kd", "result": "~100", "unit": "nM"}]}
